Reference: US20140274782A1, “AFFINITY REAGENTS AND METHODS FOR DETECTION, PURIFICATION, AND PROTEOMIC ANALYSIS OF METHYLATED PROTEINS” (The Board of Trustees of the Leland Stanford Junior …, priority 2013, published 2014)

Key:
[1] = system: 3×MBT domain of L3MBTL1; experiment: Triple SILAC pull-down, 3xMBT/3xMBTD355N ratio (cytoplasmic, nuclear and chromatin fractions of 293T cells); type: binding, human; details: SILAC ratio 3xMBT vs 3xMBTD355N pull-down, 293T cells, all values in log base 2; for 3xMBT/D355N UNC Heavy: experiment with UNC0638 in heavy SILAC media; for 3xMBT/D355N UNC Light: experiment with UNC0638 in light SILAC media;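 on all read-outs here: proteins quantified with MaxQuant, requiring at least two unique peptides and quantification in both label directions, normalized to the mean of proteins from a digested loading control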
[2] = biological target: T1, G9a and GLP (Homo sapiens, UniProt Q96KQ7+Q9H9B1); experiment: Triple SILAC pull-down after UNC0638 treatment of 293T cells, DMSO/UNC0638 ratio of protein captured by 3×MBT; type: cell-based; set-up: endogenous in cells; host or cells: HEK 293T; details: all values in log base 2; for Relative to UNC0638 UNC Heavy / Relative to UNC0638 UNC Light: SILAC ratio DMSO relative to UNC0638, pull-down with 3xMBT; for Relative to UNC0638 UNC Heavy: UNC0638 in heavy SILAC media; for Relative to UNC0638 UNC Light: UNC0638 in light SILAC media; for Relative to UNC0638 Average: average of UNC Light and UNC Heavy experiments;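 on all read-outs here: mass spectrometry (Q-Exactive) SILAC quantitation, DMSO/UNC0638 ratio computed after subtracting 3×MBTD355N mutant pull-down background, only proteins with at least twofold 3×MBT over mutant signal considered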
T1 sequence (Q96KQ7 2-1210 limits assumed): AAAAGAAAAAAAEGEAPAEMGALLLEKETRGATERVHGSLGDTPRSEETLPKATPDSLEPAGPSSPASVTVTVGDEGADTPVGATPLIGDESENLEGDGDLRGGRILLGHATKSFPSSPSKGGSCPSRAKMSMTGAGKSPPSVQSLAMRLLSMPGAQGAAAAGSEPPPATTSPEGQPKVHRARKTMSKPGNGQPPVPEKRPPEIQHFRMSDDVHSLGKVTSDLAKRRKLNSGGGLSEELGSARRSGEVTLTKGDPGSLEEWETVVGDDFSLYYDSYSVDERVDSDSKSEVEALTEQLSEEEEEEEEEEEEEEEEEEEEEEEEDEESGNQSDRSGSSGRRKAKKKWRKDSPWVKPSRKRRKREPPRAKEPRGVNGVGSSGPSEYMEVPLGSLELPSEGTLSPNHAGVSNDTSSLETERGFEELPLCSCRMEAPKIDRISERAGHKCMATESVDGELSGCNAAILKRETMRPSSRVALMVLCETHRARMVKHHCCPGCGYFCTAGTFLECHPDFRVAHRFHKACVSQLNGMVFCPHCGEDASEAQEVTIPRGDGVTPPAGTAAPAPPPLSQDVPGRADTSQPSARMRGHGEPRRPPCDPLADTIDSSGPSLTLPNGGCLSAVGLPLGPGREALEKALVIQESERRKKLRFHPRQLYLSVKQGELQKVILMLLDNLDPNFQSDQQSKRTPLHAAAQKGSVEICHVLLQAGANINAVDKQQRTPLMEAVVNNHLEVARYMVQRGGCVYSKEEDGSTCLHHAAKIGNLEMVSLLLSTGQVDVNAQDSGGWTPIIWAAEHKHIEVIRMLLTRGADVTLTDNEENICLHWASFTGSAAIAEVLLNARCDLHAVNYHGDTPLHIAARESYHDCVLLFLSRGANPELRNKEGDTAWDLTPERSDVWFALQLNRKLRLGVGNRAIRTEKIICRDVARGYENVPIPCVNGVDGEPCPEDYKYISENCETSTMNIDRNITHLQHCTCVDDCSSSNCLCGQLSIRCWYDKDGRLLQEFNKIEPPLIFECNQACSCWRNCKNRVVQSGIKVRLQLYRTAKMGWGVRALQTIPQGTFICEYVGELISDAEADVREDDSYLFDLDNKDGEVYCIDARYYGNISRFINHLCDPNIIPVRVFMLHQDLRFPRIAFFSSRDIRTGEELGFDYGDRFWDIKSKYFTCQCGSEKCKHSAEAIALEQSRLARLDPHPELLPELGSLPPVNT
T1 sequence (Q9H9B1 2-1298 limits assumed): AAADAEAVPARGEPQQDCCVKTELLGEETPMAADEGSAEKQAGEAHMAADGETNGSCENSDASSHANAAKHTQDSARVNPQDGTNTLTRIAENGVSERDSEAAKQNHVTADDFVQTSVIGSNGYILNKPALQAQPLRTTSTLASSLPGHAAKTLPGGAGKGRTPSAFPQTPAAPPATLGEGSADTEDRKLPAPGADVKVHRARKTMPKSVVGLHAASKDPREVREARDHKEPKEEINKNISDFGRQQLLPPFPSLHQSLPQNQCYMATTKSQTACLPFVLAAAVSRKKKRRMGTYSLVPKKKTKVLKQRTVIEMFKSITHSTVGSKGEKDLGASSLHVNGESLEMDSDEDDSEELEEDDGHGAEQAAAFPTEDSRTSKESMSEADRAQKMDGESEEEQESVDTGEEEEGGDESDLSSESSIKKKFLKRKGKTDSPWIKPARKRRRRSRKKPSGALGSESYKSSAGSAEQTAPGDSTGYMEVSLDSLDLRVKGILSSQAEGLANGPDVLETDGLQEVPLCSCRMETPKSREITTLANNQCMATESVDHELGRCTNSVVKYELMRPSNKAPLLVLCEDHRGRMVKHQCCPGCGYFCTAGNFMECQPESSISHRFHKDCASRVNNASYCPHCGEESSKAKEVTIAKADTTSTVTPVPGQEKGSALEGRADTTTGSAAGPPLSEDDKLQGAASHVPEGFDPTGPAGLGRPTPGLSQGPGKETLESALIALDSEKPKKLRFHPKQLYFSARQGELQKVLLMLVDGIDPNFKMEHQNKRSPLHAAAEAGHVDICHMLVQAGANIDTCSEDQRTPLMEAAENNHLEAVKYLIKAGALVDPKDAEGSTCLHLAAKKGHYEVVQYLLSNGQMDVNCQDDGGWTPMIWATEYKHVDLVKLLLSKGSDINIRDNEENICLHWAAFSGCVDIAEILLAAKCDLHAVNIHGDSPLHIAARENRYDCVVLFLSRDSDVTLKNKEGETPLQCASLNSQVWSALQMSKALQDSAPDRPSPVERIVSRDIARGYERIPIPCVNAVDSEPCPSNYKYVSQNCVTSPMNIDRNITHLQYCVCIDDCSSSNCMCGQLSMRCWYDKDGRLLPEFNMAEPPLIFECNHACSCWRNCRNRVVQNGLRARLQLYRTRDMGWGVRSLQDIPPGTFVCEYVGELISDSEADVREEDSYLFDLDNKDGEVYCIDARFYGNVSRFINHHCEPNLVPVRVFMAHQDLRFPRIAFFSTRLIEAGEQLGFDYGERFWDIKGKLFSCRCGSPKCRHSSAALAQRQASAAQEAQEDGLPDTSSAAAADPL

Molecule | 3xMBT/D355N UNC Heavy [1] [log base 2] | 3xMBT/D355N UNC Light [1] [log base 2] | Relative to UNC0638 UNC Heavy [2] [log base 2] | Relative to UNC0638 UNC Light [2] [log base 2] | Relative to UNC0638 Average [2] [log base 2]
GTPBP1 (protein, UniProt O00178 1-669, looked up) GTP-binding protein 1: MATERSRSAMDSPVPASMFAPEPSSPGAARAAAAAARLHGGFDSDCSEDGEALNGEPELDLTSKLVLVSPTSEQYDSLLRQMWERMDEGCGETIYVIGQGSDGTEYGLSEADMEASYATVKSMAEQIEADVILLRERQEAGGRVRDYLVRKRVGDNDFLEVRVAVVGNVDAGKSTLLGVLTHGELDNGRGFARQKLFRHKHEIESGRTSSVGNDILGFDSEGNVVNKPDSHGGSLEWTKICEKSTKVITFIDLAGHEKYLKTTVFGMTGHLPDFCMLMVGSNAGIVGMTKEHLGLALALNVPVFVVVTKIDMCPANILQETLKLLQRLLKSPGCRKIPVLVQSKDDVIVTASNFSSERMCPIFQISNVTGENLDLLKMFLNLLSPRTSYREEEPAEFQIDDTYSVPGVGTVVSGTTLRGLIKLNDTLLLGPDPLGNFLSIAVKSIHRKRMPVKEVRGGQTASFALKKIKRSSIRKGMVMVSPRLNPQASWEFEAEILVLHHPTTISPRYQAMVHCGSIRQTATILSMDKDCLRTGDKATVHFRFIKTPEYLHIDQRLVFREGRTKAVGTITKLLQTTNNSPMNSKPQQIKMQSTKKGPLTKRDEGGPSGGPAVGAPPPGDEASSVGAGQPAASSNLQPQPKPSSGGRRRGGQRHKVKSQGACVTPASGC | −0.64 | 1.80 | −0.27 | 0.13 | −0.07
SMC1A (protein, UniProt Q14683 1-1233, looked up) Structural maintenance of …: MGFLKLIEIENFKSYKGRQIIGPFQRFTAIIGPNGSGKSNLMDAISFVLGEKTSNLRVKTLRDLIHGAPVGKPAANRAFVSMVYSEEGAEDRTFARVIVGGSSEYKINNKVVQLHEYSEELEKLGILIKARNFLVFQGAVESIAMKNPKERTALFEEISRSGELAQEYDKRKKEMVKAEEDTQFNYHRKKNIAAERKEAKQEKEEADRYQRLKDEVVRAQVQLQLFKLYHNEVEIEKLNKELASKNKEIEKDKKRMDKVEDELKEKKKELGKMMREQQQIEKEIKEKDSELNQKRPQYIKAKENTSHKIKKLEAAKKSLQNAQKHYKKRKGDMDELEKEMLSVEKARQEFEERMEEESQSQGRDLTLEENQVKKYHRLKEEASKRAATLAQELEKFNRDQKADQDRLDLEERKKVETEAKIKQKLREIEENQKRIEKLEEYITTSKQSLEEQKKLEGELTEEVEMAKRRIDEINKELNQVMEQLGDARIDRQESSRQQRKAEIMESIKRLYPGSVYGRLIDLCQPTQKKYQIAVTKVLGKNMDAIIVDSEKTGRDCIQYIKEQRGEPETFLPLDYLEVKPTDEKLRELKGAKLVIDVIRYEPPHIKKALQYACGNALVCDNVEDARRIAFGGHQRHKTVALDGTLFQKSGVISGGASDLKAKARRWDEKAVDKLKEKKERLTEELKEQMKAKRKEAELRQVQSQAHGLQMRLKYSQSDLEQTKTRHLALNLQEKSKLESELANFGPRINDIKRIIQSREREMKDLKEKMNQVEDEVFEEFCREIGVRNIREFEEEKVKRQNEIAKKRLEFENQKTRLGIQLDFEKNQLKEDQDKVHMWEQTVKKDENEIEKLKKEEQRHMKIIDETMAQLQDLKNQHLAKKSEVNDKNHEMEEIRKKLGGANKEMTHLQKEVTAIETKLEQKRSDRHNLLQACKMQDIKLPLSKGTMDDISQEEGSSQGEDSVSGSQRISSIYAREALIEIDYGDLCEDLKDAQAEEEIKQEMNTLQQKLNEQQSVLQRIAAPNMKAMEKLESVRDKFQETSDEFEAARKRAKKAKQAFEQIKKERFDRFNACFESVATNIDEIYKALSRNSSAQAFLGPENPEEPYLDGINYNCVAPGKRFRPMDNLSGGEKTVAALALLFAIHSYKPAPFFVLDEIDAALDNTNIGKVANYIKEQSTCNFQAIVISLKEEFYTKAESLIGVYPEQGDCVISKVLTFDLTKYPDANPNPNEQ | 1.31 | 1.83 | −0.05 | −0.01 | −0.03
DDX49 (protein, UniProt Q9Y6V7 1-483, looked up) Probable ATP-dependent RNA …: MAGFAELGLSSWLVEQCRQLGLKQPTPVQLGCIPAILEGRDCLGCAKTGSGKTAAFVLPILQKLSEDPYGIFCLVLTPTRELAYQIAEQFRVLGKPLGLKDCIIVGGMDMVAQALELSRKPHVVIATPGRLADHLRSSNTFSIKKIRFLVMDEADRLLEQGCTDFTVDLEAILAAVPARRQTLLFSATLTDTLRELQGLATNQPFFWEAQAPVSTVEQLDQRYLLVPEKVKDAYLVHLIQRFQDEHEDWSIIIFTNTCKTCQILCMMLRKFSFPTVALHSMMKQKERFAALAKFKSSIYRILIATDVASRGLDIPTVQVVINHNTPGLPKIYIHRVGRTARAGRQGQAITLVTQYDIHLVHAIEEQIKKKLEEFSVEEAEVLQILTQVNVVRRECEIKLEAAHFDEKKEINKRKQLILEGKDPDLEAKRKAELAKIKQKNRRFKEKVEETLKRQKAGRAGHKGRPPRTPSGSHSGPVPSQGLV | 3.17 | 1.77 | 0.43 | −0.49 | −0.03
